From patent publication US20170233495

Molecular target: All antibodies according to the invention, which were tested (Example 4)

Row | Protein | cleavage of fluorogenic peptide OmniMMP RED by MMP catalytic domain, antibody at 100 nM
1 | recombinant catalytic domain of human MMP1 (protein) FVLTEGNPRWEQTHLTYRIENYTPDLPRADVDHAIEKAFQLWSNVTPLTFTKVSEGQADIMISFVRGDHRDNSPFDGPGGNLAHAFQPGPGIGGDAHFDEDERWTNNFREYNLHRVAAHELGHSLGLSHSTDIGALMYPSYTFSGDVQLAQDDIDGIQAIYGRSQNPVQP | had no significant effect on the catalytic activity of the eight other human MMPs tested
2 | recombinant catalytic domain of human MMP12 (protein) GPVWRKHYITYRINNYTPDMNREDVDYAIRKAFQVWSNVTPLKFSKINTGMADILVVFARGAHGDFHAFDGKGGILAHAFGPGSGIGGDAHFDEDEFWTTHSGGTNLFLTAVHEIGHSLGLGHSSDPKAVMFPTYKYVDINTFRLSADDIRGIQSLYG | had no significant effect on the catalytic activity of the eight other human MMPs tested
